Experimental data published in the DeepSol protein solubility set.

Experiment: soluble on expression in E. coli; label from the status in PepcDB or PDB records
With “SQLVECVPNFSEGKNQEVIDAISRAVAQTPGCVLLDVDSGPSTNRTVYTFVGRPEDVVEGALNAARAAYQLIDMSRHHGEHPRMGALDVCPFIPVRGVTMDECVRCAQAFGQRLAEELGVPVYLYGEAARTAGRQSLPALRAGEYEALPEKLKQAEWAPDFGPSAFVPSWGATVAGARKFLLAFNINLLSTREQAHRIALDLREQGRGKDQPGRLKKVQAIGWYLDEKNLAQVSTNLLDFEVTGLHTVFEETCREAQELSLPVVGSQLVGLVPLKALLDAAAFYCEKENLFLLQDEHRIRLVVNRLGLDSLAPFKPKERIIEYLV” the “soluble on expression in E. coli” value was “soluble”. For “MTEEIVELVLRERISPLLRSHGGDLSLSQIKDKTVFVRFSGACRFCPAAHETVEKIVQAMIREYFKDDNIDVILENSVSDDLLEQAKNILRKPK”, the “soluble on expression in E. coli” value was “not soluble”. With “MGSDKIHHHHHHMQMDLETAVMKKKESLNETDKAIVSYLLKYPEDASKLSLMELAQKLYVSKSAIFRLSKKLGLSGFSELKFELTELTNKKVQNKKYVQELDFNNNLHQIIDETFKYFKDANFHDLFIDLDNAETIYIYSTGWQQQIIAEYLAHSFFLIGKKAIILPSAKDEVAMLGRSIEENDMLFVISFGGFNKTIIEELKKIDTVTDKLKFVSLTSWQPGKIASLSDYSFFFKTTPFQISNQNAVTFSSAYVLIDLIINEYGKHCNSKK” the “soluble on expression in E. coli” value was “not soluble”. With “MSGAYDESAMSDETTDSFWEVGNYKRTVKRIEDGHRLCNDMMSCIQERAKIEKAYSQQLTDWSKRWRQLVERGPQYGTLERAWLAVMTEAEKVSELHQEVKNNLLNEDLEKVKNWQKDAYHKQMMGGFKETKEADEGFRKAQKPWAKKLKELETAKKTYHMACKEEKIASAREANSKGEASVTTDQQKKLQEKVDKCKNDVQKAKEKYEKSLDELNKCTPQYMENMEVVFDQCQQFEEKRLNFLREVLLDTKRHLNLTESQSYATVYRELERTIVSASAQEDLKWFSSVHGPGMHMNWPQFEEFNPDLSHAISKKEKVKRNHDGVTLTQVTHGAEHGTPQTGDRGSVSSYEKNQQYSAEWSDDEQPPTAAQSASETNGGNPFEEDSKGVRVRALYDYEGQEQDELTFKAGDELTKLEDEDEQGWCKGRLDSGQLGLYPANYVEPV” the “soluble on expression in E. coli” value was “not soluble”. With “MGSDKIHHHHHHMADTFLFRVHRSQILPALNAVFEAVDPRSNIPILQNVLLSPNAERLRLSGTNMTVEVETSCDLLESASGNPLTLSGKALLDIVKSFSEVAEIEFSFDDLRGQVRVKSGRSRFLLATLHADQFPTIASLASGKSVAVDMPSLISAIARVKYALFDHKDRAYLSGIFIHPEEGENKIAVVAADGHNLAVVRFPCEAGTTFPGAIIPIKAIDAIRRLFGETKASAQVKISDEMIQICCHDVRLTSKLIDAVYPDYDVAIPKDNTSRIIVDAKHLINAVHRVCLVKKDDKRDTIKLVGSNGMLQVSMAATDGEEAVEEIAAEYNGPQIRIGFNGDYLKDALSSIKTTDVAINLLTESSPGLLTPTVGTDELYVVYPRVLPHD” the “soluble on expression in E. coli” value was “not soluble”. For “MNIIDFRFRPNTEAILKGISSNPAFKGMCQSIDFNKMLPQTLEEVVEELDRHHVVKAVISGRDCETTYGAKSNNPSVIEFCHKFPDKFIGFAGLDPHKGMAALAEITHAVHEEGIKGAAIDPYLARIYVNDAKYYPIYAKCCELGIPLIIATGPGTLVPNAVIDHVAPRYIDFVARDFPELKIIASHGGYPWVNEMITVAQRNANVYLELSEYEFFPQSSAYIEAANSILSDKIMYASAHPFVDFKLALKNYEQLPLKPEVREKVMYKNAAKVLGLSDGTFSASKAMDAQEVQMIIENVIAQLSQRGLLANR”, the “soluble on expression in E. coli” value was “not soluble”. In the case of “MDNHDDKSKSDRFCDINNNMTTQFDRLSINSDASLVITSSRLAMQGADETSDWTPNKYSWFKLVTPNPVETRVVQQKAQMKGLKIHKMVHNFIPSRKQGYLGYYNFDVKSYEESEKARNLFPTDFVDAFCCQHLLGKNEQEFVFHAVNENDLKILCCIATYCKETKLDAPLDPMQHLNNLNLFYEAINNERAFIIMKDFMSDNGMKYLCRLKKDITDIRDRRNNN”, the “soluble on expression in E. coli” value is reported as “not soluble”. For “MKAFDIMKASQIACCFEVGSFKPGNVHKNRDYDDIKYHHFISSGIAFGDVIHQACLEKNNIGNFIKKGVIESKKWSPTNANLGIIMLHMPIAIAASNLDKFSESALKKETEKIIKNTTVQDAIDVYRAIEIALAFVNAPENGPDLKSKDAKDELIEKNLTLYDVFKISSTWDSISNEWTENFKISYKGYNLIKEYYEKYNNINIAVTKTFINLLSNYPDTLIARKKGIDVSKMVSEKAKEVLNNFNEESVLEFDKFLSKEGNKLNPGTTADLIASSLLIFLLDRISNEKTILY”, the “soluble on expression in E. coli” value was “not soluble”. With “MSLADIYAFPTGESNDGRPVRPQGVPDEVWAAVESVSTMKRIHDVRYREIPVPSTLADYGIGVEFEAGERALGDAFSAGLGSDAEPRIATGWIMMLYAHELRIDWDSNWRCVAFARLPLETAENDSLTPGMYWDDMCDYFDGIEPDSVSGTVTVTQNTAFGSMAGSTSAGCEIRVSWTPLDGTGPDGTMDAGAQVRSWAAFIRSTIRFEEDDASEGHHHHHH” the “soluble on expression in E. coli” value was “soluble”. In the case of “MTKVSVVGAAGTVGAAAGYNIALRDIADEVVFVDIPDKEDDTVGQAADTNHGIAYDSNTRVRQGGYEDTAGSDVVVITAGIPRQPGQTRIDLAGDNAPIMEDIQSSLDEHNDDYISLTTSNPVDLLNRHLYEAGDRSREQVIGFGGRLDSARFRYVLSEEFDAPVQNVEGTILGEHGDAQVPVFSKVSVDGTDPEFSGDEKEQLLGDLQESAMDVIERKGATEWGPARGVAHMVEAILHDTGEVLPASVKLEGEFGHEDTAFGVPVSLGSNGVEEIVEWDLDDYEQDLMADAAEKLSDQYDKIS”, the “soluble on expression in E. coli” value is reported as “soluble”. With “MKKEQVEKRTYLAVDIGASSGRIMKSQRLANGQITIEEIHRFKNGFHQKDGYQRWDMASLVHELLLGLQKVKQLGIKECFIGIDTWGVDYCLLDQSGQLLDEPIAYRDGRTEAAVTNFSKGYSLEKLYQQTGIQVQPFNTIFQLFVEEKERLAAASQLLLIPDYLGYVFTGKAVIEATNASTTQLLNAGTKQWESELLDFLGIDETLFPTLVEPGTILGDLQTAAFPDYDLPNATLITIASHDTASAILGTPGIGDDWAYISSGTWSLLGIETTVTTISAEAFQENYTNEWGAQNTIRFLKNIMGMWLIQEVARHQNYQYSYAELAALAEKEPAFQQFIDVNDPRFLNPGNMITELQAYCRETQQTVPESPGELARCIYDNLALCYSVELEKLAQLTGIERKITTLHVVGGGSNNRLLNQLTADVANVTVNAGPGEAIALGNLLMQMIATGELKDIPAARTCIQTSFPTEIYQANPIDSTIKNRYQAFMKRSSL” the “soluble on expression in E. coli” value was “not soluble”. In the case of “MGSDKIHHHHHHMSDIKFNSMTHFEAVARLGGVAKAAQELQVTPSAVSQQLRLLEHQLGVRLFQREKRHLSLTIDGERLFQTTTQAFESIREVRNAIVRQRESFQLSLRVSPSFGEKWLAPRLAEFSKDYPSWNLRVDATPNFSDFETEVIDLDLRYGDGGWAGLYSDCVVNDLILPMCSPSYLAELRGLSVDPREQLGHARLIDSVKAYFRWDYWLPRNGIQGARMTYPYRFDRSSMSVQLAKDGAGVVLESTTIAFEDLVSGSLVPVSTEFDVIEFPGYWLVCPSRHMNRRAVRLFSDWVSRVGQRDTDRARQFLSESGLHISFERRPHFGTPDDRAATML”, the “soluble on expression in E. coli” value is reported as “not soluble”. For “MTLDDDDYIKQMELQRKAFESQFGSLESMGFEDKTKNIRTEVDTRDSSGDEIDNSDHGSDFKDGTIESSNSSDEDSGNETAEENNQDSKPKTQPKVIRFNGPSDVYVPPSKKTQKLLRSGKTLTQINKKLESTEAKEEKEDETLEAENLQNDLELQQFLRESHLLSAFNNGGSGSTNSGVSLTLQSMGGGNDDGIVYQDDQVIGKARSRTLEMRLNRLSRVNGHQDKINKLEKVPMHIRRGMIDKHVKRIKKYEQEAAEGGIVLSKVKKGQFRKIESTYKKDIERRIGGSIKARDKEKATKRERGLKISSVGRSTRNGLIVSKRDIARISGGERSGKFNGKKKSRR”, the “soluble on expression in E. coli” value was “not soluble”. For “MAHHHHHHMGYGGPRVEFYTANQYSNFAAAIDRENAARVRSILHRRNLPAEQEAQRQREAAFRAYERAQADEVARSHAEEAEALERRRVKDERAQRRLATKTRRRSLTAAEVASRRSRHACLCRLAEPRKYQEAMYGSGMIGGAMPHQSGRDGKLPTVGRNGAVYCAGVDRDRIVPSRPALEGTVPPWKGSYSTHHGPHKLDAQMAKEAAAYYCAHPAPQRSASEQDMRQQTLQSIAAEHSMAAQQDGADVGMADASGAKGRSSVADAVQWHRMGSDNVDDEAGSIFSHGSSNGPIAATGNMHLSTTSTKHSVQLHLSRYGGAMTAPRPWRPSKAASENLTLPELADRLVCIQMSKSVVR”, the “soluble on expression in E. coli” value was “not soluble”. In the case of “MGHHHHHHSHMVSTATHSLSRLHTMLTGLRNAPSEKLEQILRTCSRDPTQAIANRLKEMFEIYSQHFQPDEDFSNCAKEIASKHFRFAEMLYYKVLESVIEQEQKRLGDMDLSGILEQDAFHRSLLACCLEVVTFSYKPPGNFPFITEIFDVPLYHFYKVIEVFIRAEDGLCREVVKHLNQIEEQILDHLAWKPES”, the “soluble on expression in E. coli” value is reported as “not soluble”. In the case of “MGEETRRQERRIDAEKRAVSSLLFRIIRSHSTPVANSTASDEATAAAAAGQQNFASRKRRETKKREKSSSSCVSHCFLVMGHGKAFVF”, the “soluble on expression in E. coli” value is reported as “not soluble”. In the case of “GAMGMNGIDDLLNINDRIKQVQNERNELASKLQNLKQSLASNDTGGGSGGGSDSSDLLQREAILANELNILDNLKTFLNLIKEVKTNLNILELENCYYSLQSLRKKMRNNAAYLKQSFNFQQSISTYVDTLHLELVSTLYKILTNGFWKITENSIQFTPTVEWGKDKVHIEYDTFMDFVAQQYFPKGSLDNQAWFILDMTSADSQEQVRAKLNTIMKEYMNLSRIVSMIKNSIFISGKEISYENEKNILVFSKSSSHGQHCVSTVLTSFEAVCDFMLDGLAFRDRKTLSYELGPLFNTEFTKFVKNNASIILESLDSPLKNLVSVINNKLTRLVAKSEVTNWTHSGKEIQDLLMN”, the “soluble on expression in E. coli” value is reported as “soluble”. With “MGLCVSKPSVAGSPEHYAAHVAEQATPSEEGSGTPAQATSSYSATDPALQGLARRGKKVDLSRSGLPERVALKTKLLANSLSDAKDAGVRSSIVKYGERTLKMLAANKQPDEALLKLDIKNLPALASVYNRRYPGLNIQHFDSPIDFLQSLSEQTTSVVSQRAVLRLERDGEHHVAADVRRRPNGEASVIVLEPARLLTFVTGHTQLRRQALSQLGENAKFAFIQVGAQKSAADCLMFDLHFALHAHQHSSLFDQWHDNMVNHGTIDPYGQGAASPDALLEDAGVELMLGEQMLPAIFYKHTHSSGVVEEVDRSQPGSAYTDVSTSGRQQQHESLEQRVQAFRVDRGYSASIETSRATKIRSALETAISDRQS” the “soluble on expression in E. coli” value was “not soluble”. In the case of “MGSDKIHHHHHHMKPENLVKAVKILDNHIPKELDDPNSIAQAAEKLELKNFSQSELVNGFNLFFAQRFEDRLQIFNRITPPVIGDLMALVTEKLGLAKQEIFDPEIVFPDLIFQFASHFGQSIYGRAADQIIDASLKKLANIYRFDFTDSDHEKIVVSRILGIDFAAEMNHFFKASNLKVGESAILLVNNSDLQSNSFAEILKKNKNMALLAIIELPTKLFKHSEMRSSLLILRRKVDNEKVTAQVLLAQIPELSNKEDFSKFVSQLETWKKENL”, the “soluble on expression in E. coli” value is reported as “not soluble”. With “MAHHHHHHMSTFARRRIIQDLNKINKEKNKSFEASPFADNIMYCHAIIRGPDDTIWECGIFHLIIHFSEEYPVSPPKLRFLSKIYHPNIYSDGNICLDILQNQWSPIYDITSILTSIQSLLNDPNTSSPANPEAARIFINNRNLYNKRVLMCVEDSWEIPKFNINNYS” the “soluble on expression in E. coli” value was “not soluble”.
